Results from paper PMC12747267 (bioRxiv, 2025).

Molecular target: the molecule itself
Assay: cryo-EM structure

B1: human myosin regulatory light chain (RLC, MYL12B) (natural protein, UniProt O14950 1-172, looked up)
chain: MSSKKAKTKTTKKRPQRATSNVFAMFDQSQIQEFKEAFNMIDQNRDGFIDKEDLHDMLASLGKNPTDAYLDAMMNEAPGPINFTMFLTMFGEKLNGTDPEDVIRNAFACFDEEATGTIQEDYLRELLTTMGDRFTDEEVDELYREAPIDKKGNFNYIEFTRILKHGAKDKDD
B1: binds.
